# Results taken from the Human Domainome abundance scans (Beltran et al. 2025).
# ± gives the uncertainty stated by the source.
# B1: Storkhead-box protein 2, residues 64 to 141; numbered along this chain, Q9P2F5 (parent)
# chain: SPISQSQFIPLGEILCLAISAMNSARKPVTQEALMEHLTTCFPGVPTPSQEILRHTLNTLVRERKIYPTPDGYFIVTP
# Variants of: B1
# Test: abundance fitness (aPCA) (normalised: wild type 0, dead -1); higher = more abundant; growth selection in yeast, the domain comes from the species named
# Conditions: Homo sapiens
row,Variant,abundance fitness
1,SPISQSQFIPLGEILCLAISAMNSARKPVTTEALMEHLTTCFPGVPTPSQEILRHTLNTLVRERKIYPTPDGYFIVTP [Q31T],0.013 ± 0.058
2,SPISQSQFIPLGEILCLAISAMNSARKPVTQEALMEHLTTCFPGVPTPSQEILRHTLNTLVRERCIYPTPDGYFIVTP [K65C],-0.208 ± 0.072
3,SPISQSQFIPLGEILCLAISAMNSARKPVTQEALMEHLTTCFPGVPTPSQEILRHTLNTLVRERPIYPTPDGYFIVTP [K65P],-0.967 ± 0.1
4,SPISQSQFIPLGEILCLAISAMNSARKPVTQEALMEHLTTCFPGVPTPSQEILRHTLNTLVRERKIAPTPDGYFIVTP [Y67A],0.03 ± 0.048
5,SPISQSQFIPLGEILCLAISAMNSARKPVTQEALMEHLTTCFPGVPTPSQEILRHTLNTLVRERKITPTPDGYFIVTP [Y67T],-0.05 ± 0.058
6,SPASQSQFIPLGEILCLAISAMNSARKPVTQEALMEHLTTCFPGVPTPSQEILRHTLNTLVRERKIYPTPDGYFIVTP [I3A],-0.075 ± 0.039
7,SPISQSQFIPLGEILCLAISSMNSARKPVTQEALMEHLTTCFPGVPTPSQEILRHTLNTLVRERKIYPTPDGYFIVTP [A21S],0.062 ± 0.052
8,SPISQSQFIPLGEILCLAISAMNSARKPVTQEALMEHLTTCFPGVPTPSQEILRETLNTLVRERKIYPTPDGYFIVTP [H55E],0.028 ± 0.052
9,SPISQSQFIPLGEILCLAISAMNSARNPVTQEALMEHLTTCFPGVPTPSQEILRHTLNTLVRERKIYPTPDGYFIVTP [K27N],-0.156 ± 0.14
10,SPISQSQFIPLGEILCLAISAMNSARFPVTQEALMEHLTTCFPGVPTPSQEILRHTLNTLVRERKIYPTPDGYFIVTP [K27F],-0.182 ± 0.078
11,SPISQSQFIPLGEILCWAISAMNSARKPVTQEALMEHLTTCFPGVPTPSQEILRHTLNTLVRERKIYPTPDGYFIVTP [L17W],-0.129 ± 0.05
12,SPISQSQFIPLGEILCLAISAMNSARKPVTQEALMEHLTTCFPGVPTPSQEILRHTLNTLVRARKIYPTPDGYFIVTP [E63A],-0.019 ± 0.039
13,SPISQSQFIPLGEILCLAISAMNSARKPVTQEALMEHLTTCFPGVPTPSQEILRHGLNTLVRERKIYPTPDGYFIVTP [T56G],-0.051 ± 0.043
14,SPISQSQFIPLGEILCLAISAMNSARKPVTQEALMEALTTCFPGVPTPSQEILRHTLNTLVRERKIYPTPDGYFIVTP [H37A],-0.285 ± 0.053
15,SPISQSQFIPLGEILCLAISAMNSARKPVTQEALMECLTTCFPGVPTPSQEILRHTLNTLVRERKIYPTPDGYFIVTP [H37C],-0.222 ± 0.086
16,SPISQSQFIPLGNILCLAISAMNSARKPVTQEALMEHLTTCFPGVPTPSQEILRHTLNTLVRERKIYPTPDGYFIVTP [E13N],0.02 ± 0.11
17,SPISQSQFIPLGEILCLAISAMNSAHKPVTQEALMEHLTTCFPGVPTPSQEILRHTLNTLVRERKIYPTPDGYFIVTP [R26H],-0.09 ± 0.09
18,SPISQSQFIPLGEILCLAISAMNSAMKPVTQEALMEHLTTCFPGVPTPSQEILRHTLNTLVRERKIYPTPDGYFIVTP [R26M],-0.124 ± 0.12

row,Variant,abundance fitness
1,SPISQSQFIPLGEILCLAISAMNSARKPVTQEAAMEHLTTCFPGVPTPSQEILRHTLNTLVRERKIYPTPDGYFIVTP [L34A],-0.45 ± 0.044
2,SPISQSQFIPLGEILCLAISAMNSARKPVTQEALMEHLTTCLPGVPTPSQEILRHTLNTLVRERKIYPTPDGYFIVTP [F42L],-0.08 ± 0.1
3,SPISQSQFIPLGEILCLAISAMNSARKPVTQEALMEHLTTCFPAVPTPSQEILRHTLNTLVRERKIYPTPDGYFIVTP [G44A],-0.054 ± 0.044
4,SPISQSQFIPLGEILCLAISAMNAARKPVTQEALMEHLTTCFPGVPTPSQEILRHTLNTLVRERKIYPTPDGYFIVTP [S24A],-0.002 ± 0.047
5,SPISQSQFIPLGEILCLAISAMNSARKPVTQEALMCHLTTCFPGVPTPSQEILRHTLNTLVRERKIYPTPDGYFIVTP [E36C],-0.064 ± 0.067
6,SPISQSQFIPLGEILCLAISAMNSARKPVTQEALMEHLTTCFPGVPTPSQEILRHTLNTLVRERKTYPTPDGYFIVTP [I66T],-0.38 ± 0.055
7,SPISQSQFIPLGEILCLAISAMNSARKPVTQEALMEHLTTCFPGVPTPSQEILRHTLNTLVRERKRYPTPDGYFIVTP [I66R],-1.17 ± 0.12
8,SPISQSQFIPLGEILCLAISAMNSARKPVTQVALMEHLTTCFPGVPTPSQEILRHTLNTLVRERKIYPTPDGYFIVTP [E32V],-0.071 ± 0.045
9,SPISQSQFIPLGEILCLARSAMNSARKPVTQEALMEHLTTCFPGVPTPSQEILRHTLNTLVRERKIYPTPDGYFIVTP [I19R],-1.01 ± 0.088
10,SPISQSNFIPLGEILCLAISAMNSARKPVTQEALMEHLTTCFPGVPTPSQEILRHTLNTLVRERKIYPTPDGYFIVTP [Q7N],-0.015 ± 0.16
11,SPISQSQLIPLGEILCLAISAMNSARKPVTQEALMEHLTTCFPGVPTPSQEILRHTLNTLVRERKIYPTPDGYFIVTP [F8L],-0.135 ± 0.054
12,SPISQSQGIPLGEILCLAISAMNSARKPVTQEALMEHLTTCFPGVPTPSQEILRHTLNTLVRERKIYPTPDGYFIVTP [F8G],-0.103 ± 0.052
13,SPISQSQFIPLGEILCLAISAMNSARKPVTQEALMEHLTTCFPGVPTPSQEILRHTLNRLVRERKIYPTPDGYFIVTP [T59R],-0.001 ± 0.036
14,SPISQSQFIPLGEILCLAISAMNSARKPVTQEALMEHLTTCFPGVPTPSQEILRHTLNTLVRERKIYCTPDGYFIVTP [P68C],0.044 ± 0.043
15,SPISQSQFIPLGEILCLAISAMNSARKPVTQEALMEHLTTCFPGVPTPSQEILRHTLNTLVRERKIYKTPDGYFIVTP [P68K],-0.082 ± 0.23
16,SPISQSQFIPLGEILCLAISAMNSARKPVTQEALKEHLTTCFPGVPTPSQEILRHTLNTLVRERKIYPTPDGYFIVTP [M35K],-0.299 ± 0.14
17,SPISQSQFIPLGEILCLAISAMNSARKPVTQEGLMEHLTTCFPGVPTPSQEILRHTLNTLVRERKIYPTPDGYFIVTP [A33G],-0.038 ± 0.035
